Where no end group is shown, it is not given here. [ ]: non-standard residue; d: D form. pT = C[C@@H](OP(=O)(O)O)[C@H](N)C(=O)O

B1: GST-PHD1 (S287-K347) of KDM5A (domain or fragment)
chain: SVNFVDLYVCMFCGRGNNEDKLLLCDGCDDSYHTFCLIPPLPDVPKGDWRCPKCVAEECSK

Experiment [1] deals with B1. The experiment in a line: FP; H3R2me2s (symmetric dimethyl).
Experiment [2] addresses B1. Nature of the experiment: FP; H3R2me2a (asymmetric dimethyl).
Experiment [3] concerns the target H3 10mer peptide mutated at R2 (UniProt P68431 2-11). The experiment in a line: FP; H3R2A.
In experiment [4] the target is B1. Nature of the experiment: FP; H3R8me2s (symmetric dimethyl).
Experiment [5] has as its target B1. Nature of the experiment: FP; H3R8me2a (asymmetric dimethyl).
Experiment [6] deals with B1. The experiment in a line: FP.
Experiment [7] has as its target B1. The experiment in a line: FP; H3T6ph.

As for ARTKQTARKS (also: methylated Arg2, degree of methylation not given here) [H3 10mer peptide methylated at R2], the results for the Kd in experiment [1] and in experiment [2] were 5310 nM and 5410 nM, respectively.

As for B1, the Kd – broadly, the equilibrium constant for the complex coming apart – in experiment [3] was found to be 205000 nM.

As to ARTKQTARKS (also: methylated Arg8, degree of methylation not given here) [H3 10mer peptide methylated at R8], the Kd in experiment [4] turned out to be 2010 nM; in experiment [5], 1840 nM.

For ARTKQTARKS (acetyl-lysine at 9 (K9ac)) [H3K9ac 10mer peptide], the equilibrium dissociation constant (Kd) in experiment [6] is 1010 nM. In other words, the single-digit micromolar range.

In experiment [6], ARTKQTARKS (trimethyl-lysine at 9 (K9me3)) [H3K9me3 10mer peptide] gave an equilibrium dissociation constant (Kd) of 740 nM.

On to ARTKQ[pT]ARKS [H3 10mer peptide phosphorylated at T6], for which binding in experiment [7] was put at a Kd of 72000 nM.

Molecule ARTKQTARKS [unmodified H3 10mer effector peptide (H3 Ala1-Ser10)] showed an equilibrium dissociation constant (Kd) in experiment [6] of 996 nM.

The values above are taken from PMC6327041 (2019).
